According to patent US20080199443A1:

Experiments:
[1] = tested on: Xenopus GDF5 with a T7 epitope tag (GDF5-T7)
[2] = molecular target: Xenopus GDF5 (wild type, full-length open reading frame expressed from injected mRNA) (Xenopus); assay: cell-based or functional assay

Chain of Xenopus Furin (P29119 whole entry): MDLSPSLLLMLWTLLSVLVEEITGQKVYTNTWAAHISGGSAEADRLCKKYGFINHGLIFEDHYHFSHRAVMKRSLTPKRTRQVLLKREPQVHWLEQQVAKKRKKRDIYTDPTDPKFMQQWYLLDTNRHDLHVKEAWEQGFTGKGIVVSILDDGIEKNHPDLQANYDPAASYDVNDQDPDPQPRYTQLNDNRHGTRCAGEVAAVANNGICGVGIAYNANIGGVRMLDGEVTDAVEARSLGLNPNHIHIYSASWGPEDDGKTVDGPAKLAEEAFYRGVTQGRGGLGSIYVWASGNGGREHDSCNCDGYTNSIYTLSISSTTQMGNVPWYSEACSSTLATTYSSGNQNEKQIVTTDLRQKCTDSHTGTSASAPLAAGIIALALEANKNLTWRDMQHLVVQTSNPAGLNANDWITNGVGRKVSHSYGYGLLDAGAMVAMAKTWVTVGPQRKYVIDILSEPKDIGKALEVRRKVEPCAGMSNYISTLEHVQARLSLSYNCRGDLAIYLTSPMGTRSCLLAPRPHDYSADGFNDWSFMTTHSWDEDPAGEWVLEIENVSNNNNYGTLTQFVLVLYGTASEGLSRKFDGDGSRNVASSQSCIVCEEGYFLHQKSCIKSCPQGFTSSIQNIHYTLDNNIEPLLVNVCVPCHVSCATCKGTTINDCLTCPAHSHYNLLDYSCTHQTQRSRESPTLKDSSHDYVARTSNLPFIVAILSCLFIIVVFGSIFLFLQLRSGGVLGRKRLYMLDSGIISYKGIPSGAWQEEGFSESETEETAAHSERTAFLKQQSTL

Xenopus Furin
proteolytic processing to the mature peptide; anti-T7 immunoblot of Xenopus oocyte supernatants [1]: XGDF5 and Vg1 mature peptides could be detected only when mRNAs encoding both Furin and SPC6 were co-injected with the growth factor messages

Xenopus Furin (enzyme)
Average DAI (Dorso-Anterior Index), ventralization of Xenopus embryos after co-injection of mRNAs [2]: 4.8 DAI
Average DAI, ventralization of Xenopus embryos; GDF5 mRNA co-injected with Furin and SPC6 mRNAs together [2]: 2.4 DAI

Xenopus SPC4 (enzyme)
Average DAI (Dorso-Anterior Index), ventralization of Xenopus embryos after co-injection of mRNAs [2]: 4.8 DAI

Xenopus SPC6A
proteolytic processing to the mature peptide; anti-T7 immunoblot of Xenopus oocyte supernatants [1]: XGDF5 and Vg1 mature peptides could be detected only when mRNAs encoding both Furin and SPC6 were co-injected with the growth factor messages

Xenopus SPC6A (enzyme)
Average DAI (Dorso-Anterior Index), ventralization of Xenopus embryos after co-injection of mRNAs [2]: 4.9 DAI
Average DAI, ventralization of Xenopus embryos; GDF5 mRNA co-injected with Furin and SPC6 mRNAs together [2]: 2.4 DAI
